Measured values from paper PMC3223566.

Assays:
[1] = molecular target: M. jannaschii RNA polymerase, wild type, reconstituted from 12 recombinant subunits (M. jannaschii) (UniProt Q58443)
[2] = molecular target: RNAPΔRpo4/7, ten-subunit RNAP subassembly lacking Rpo4/7 (M. jannaschii) (UniProt Q58443)
[3] = molecular target: M. jannaschii RNA polymerase, wild type, reconstituted from 12 recombinant subunits (M. jannaschii) (UniProt Q58443); experiment: native gel or EMSA; competition in the TEC: RNAP (0.21 μM), NTS (20 μM), TS (15 μM), RNA (68 μM), TFE^G133*DL549 (0.74 μM), Spt4/5 or Spt4/5^A4R (1, 2.5, 15 μM)
[4] = molecular target: M. jannaschii RNA polymerase, wild type, reconstituted from 12 recombinant subunits (M. jannaschii) (UniProt Q58443); experiment: native gel or EMSA; competition in the PIC: Spt4/5 (0, 16, 32, 137 μM) added to preformed PICs (DNA, TBP, TFB, RNAP) with fluorescently labeled TFE (0.75 μM)
[5] = molecular target: M. jannaschii RNA polymerase, wild type, reconstituted from 12 recombinant subunits (M. jannaschii) (UniProt Q58443); remark: listed apart in the source
[6] = molecular target: M. jannaschii RNA polymerase, wild type, reconstituted from 12 recombinant subunits (M. jannaschii) (UniProt Q58443); experiment: native gel or EMSA; competition: Spt4/5 or Spt4/5^A4R (0.33, 1, 7.5, 25 μM) added to a preformed complex of free RNAP and TFE^133*DL549 (0.74 μM)
[7] = molecular target: M. jannaschii RNA polymerase, wild type, reconstituted from 12 recombinant subunits (M. jannaschii) (UniProt Q58443); remark: listed apart in the source

B1: TFE (archaeal transcription initiation factor E), unlabeled wild type (natural protein)
chain: MLNDPLVQEVLFNIFEGDEKGFEVIDVLLEKGETTEEEIAKELGVKLNVVRKLLYKLYDARLVDYKRWKDEDTNWYSYTWLPTLEKLPYVVKKKINELIKDLEKKLEFEKNNMFFFCPNCNVRFTFEEAMDYGFSCPGCGNMLQEFDNSELIKDLEEQIKFLKEELKNNPFLK
B1 was tested, and the stimulation of promoter-directed runoff transcription by TFE (0, 0.32, 8 μM) [1] was 5 fold and the stimulation of promoter-directed transcription by TFE (8 μM) [2] was less than 1.2 fold.

B2: Spt4/5, transcription elongation factor, wild type (complex)
chain 1: MRACLKCKYLTNDEICPICHSPTSENWIGLLIVINPEKSEIAKKAGIDIKGKYALSVKE
chain 2: MIFAVRTMVGQEKNIAGLMASRAEKEQLDVYSILASESLKGYVLVEAETKGDVEELIKGMPRVRGIVPGTIAIEEIEPLLTPKKIIENIEKGDVVEIIAGPFKGERAKVIRVDKHKEEVTLELENAAVPIPITLPVEGVKIVSKHKD
B2 gave an IC50 [3] of 790 nM, an IC50 [4] of 29000 nM and an inhibition of transcript synthesis in promoter-directed transcription, Spt4/5 at 55.2 μM [5] greater than 10 fold. The IC50 [6] was 550 nM and the inhibition of promoter-directed runoff transcription by minimal complexes (DNA, TBP, TFB, RNAP; no TFE) [7] was 9.6 µM.
